# Measured values from patent US20080280834A1, “Compounds and methods for inhibiting apoptosis” (University of Pittsburgh of the Commonwealth System of …, priority 2005, published 2008).
# Read-outs that look alike come from different tables or passages of the source. Residues, ends and D or L forms follow the SMILES beside them. No end group written: not given here.
# Legend:
# Jurkat cells = assay type: cell-based, human; settings: for EC50 (nM): Table 5, Jurkat cells, peptide then recombinant FasL, cell viability
# Description: (§1) Cell Lines, Chemicals, Antibodies & Proteins. Recombinant Human Fas/TNFRSF6/Fc Chimera (cat no. 326-FS-050), Human Fas Ligand/TNFSF6 (cat. No. 126-FL), Anti-human Fas TNFRSF6 Polyclonal Antibody (cat. no. AF326) and Anti-6×Histidine Cross-Linking Ab (cat no. MAB050) were purchased from R&D Systems. Anti-human, IgM-HRP (cat. no. AP320P) was purchased from Chemicon International. Phosphate buffered saline (cat. no. P3563), sodium azide (cat. no. 71289) and 3,3′,5,5′-Tetramethylbenzidine (TMB) Liquid Substrate System for ELISA (cat. no. T0440) were purchased from Sigma-Aldrich. Cliniplate 96-well microplates w/enhanced binding (cat. no. 28298-604) were purchased from VWR. Costar, 96-well, cell culture assay plates (cat. no. 3632) were ordered from Corning Incorporated. Jurkat cells (ATCC no. CRL-1990) and L929 (ATCC no. CRL-2148) were purchased from ATCC and were propagated in RPMI 1640 medium with 2 mM L-glutamine, adjusted to contain 1.5 g/L sodium bicarbonate, 4.5 g/L glucose, 10 mM HEPES, and 1 mM sodium pyruvate, 90%; 10% fetal bovine serum. CellTiter Blue Cell Viability Assay (cat. no. TB317) was purchased from Promega.
# Apoptosis Assay. […] Control reactions were diluted with sterile PBS buffer to final volume of 200 μL per well. Peptide solutions (in PBS buffer, pH=7.3) were added in appropriate volumes to reach the desired concentrations in each well given a total volume of 200 μL per well. Apoptosis was induced by the addition of cross-linked human FasL at a concentration of 0.5 ng/ml. Plates were then incubated under sterile conditions, with shaking in a Kendro, model Hera Cell 150 incubator at T=37° C., % CO2=5 for 3 hours. A Cell Titer Blue Cell Viability Assay kit was used (as per accompanying protocol) to determine % apoptosis in cells. Fluorescence readings (560/590 nm) were taken after 4 hours under above cited incubation conditions on a Perkin-Elmer, Victor3 Model automated plate reader. Data was analyzed using standard regression fits in Excel.
# Correlating the In-vitro Binding Assays with Cellular Activity. FasL activated apoptosis is known to occur by binding of the ligand to the receptor thereby initiating a series of signaling events leading to caspase production and subsequent cell death. If the YLGA (SEQ ID NO:1) motif isolated in both the α-Met and FasL proteins, is indeed the primary sequence responsible for binding to FasR then at a given concentration, peptides of sufficient Ka values should preferably bind to the receptor. This in turn would block the binding site from FasL and inhibiting cell death in the presence of both peptide and FasL. In order to examine this possibility, Jurkat cells (known to upregulate the Fas receptor) were treated with varying concentrations of peptide and then exposed to recombinant FasL.
# FasR = molecular target: T1, FasR (Homo sapiens, UniProt P25445); assay: ELISA binding of peptides to FasR (association constant); settings: for Ka(M^−1), Measured Association Constants (Ka) for YLGA to XLGA Substituted Peptides / Ka(M^−1), Measured Association Constants (Ka) YLGA and YXGA Substituted Proteins / Ka(M^−1), Measured Association Constants (Ka) for YLGA and YLXA Substituted Peptides / Ka(M − 1), Measured Association Constants (Ka) for YLGA and YLGX Substituted Peptides: ELISA; for Ka(M^−1), Measured Association Constants (Ka) for YLGA to XLGA Substituted Peptides: concentration range 1 nM to 1 μM, first residue varied; for Ka (M^−1), Elongated Peptide Sequences: Table 7, peptides based on the α-Met sequence, Fas receptor; for Ka(M^−1), Measured Association Constants (Ka) YLGA and YXGA Substituted Proteins / Ka(M^−1), Measured Association Constants (Ka) for YLGA and YLXA Substituted Peptides / Ka(M − 1), Measured Association Constants (Ka) for YLGA and YLGX Substituted Peptides: 1 nM to 1 μM; for Ka(M^−1), Measured Association Constants (Ka) YLGA and YXGA Substituted Proteins: second residue varied; for Ka(M^−1), Measured Association Constants (Ka) for YLGA and YLXA Substituted Peptides: third residue varied; for Ka(M − 1), Measured Association Constants (Ka) for YLGA and YLGX Substituted Peptides: fourth residue varied
# T1 construct: Fc (IgG Fc fusion partner); purchased R&D Systems 326-FS-050
# T1 sequence (P25445 with tags, fused parts or gaps limits assumed): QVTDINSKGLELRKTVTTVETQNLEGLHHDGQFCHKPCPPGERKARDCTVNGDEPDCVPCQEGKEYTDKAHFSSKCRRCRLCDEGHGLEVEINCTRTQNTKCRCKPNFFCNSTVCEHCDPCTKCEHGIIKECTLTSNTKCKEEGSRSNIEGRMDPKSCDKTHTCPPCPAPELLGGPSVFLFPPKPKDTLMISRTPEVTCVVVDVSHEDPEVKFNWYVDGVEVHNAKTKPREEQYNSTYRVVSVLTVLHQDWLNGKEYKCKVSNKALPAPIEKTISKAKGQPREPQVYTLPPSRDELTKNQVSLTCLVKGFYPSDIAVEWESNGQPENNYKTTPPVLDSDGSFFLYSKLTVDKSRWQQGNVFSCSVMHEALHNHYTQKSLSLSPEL
# Description: as §1
# ELISA. Peptides were dissolved in a coating buffer solution (0.05M Sodium Carbonate, 0.02% Sodium Azide, pH=9.6) at the appropriate concentrations to a final concentration of 10 μM. Dilutions were made accordingly to reach desired experimental concentrations. 100 μl aliquots of the peptide solution was added to each well and incubated for 2 hours. All incubations were carried out with shaking at T=37° C. Wells were washed by pipetting solution out of each well, adding 200 μL of washing solution (PBS-Tween; 0.5%), shaking for 15 minutes and emptying each well. Three wash cycles were carried out prior to addition of 200 μL of blocking solution (1% BSA in PBS buffer) to each well followed by incubation for 2 hours. Wells were then washed (as per above procedure) three times. Protein solutions of the appropriate concentrations (Vsolution 50 μL) were then added and incubated for 2 hours. After washing three times (as per above protocol) Fas specific antibody solution (˜1:20,000) was added to each well in 100 μL aliquots and incubated for 1 hour. After washing three times (as per above protocol) IgM-HRP solution (˜1:20,000) was added to each well in 100 μL aliquots and incubated (with shaking) for 1 hour at T=37° C. Wells were washed three times prior to the addition of ready-to-use TMD, followed by incubation for 30 minutes. 2M H2SO4 (3 drops) was added to stop colorimetric reaction and the absorption was taken at 450 nm on a Perkin-Elmer, Victor3 Model automated plate reader. Data was analyzed using standard regression fits in Excel.
# Effect of Amino Acid Substitution on Binding Affinities. The binding affinity of each tetrapeptide was determined by standard ELISA with a concentration range of 1 nM to 1 μM. In the first series of peptides, alterations were made only to the tyrosine residue while retaining the final three amino acids homologous in the parent sequence (LGA).
# TNFR1 = molecular target: T2, TNFR1 (Mus musculus, UniProt P25118); assay: Inhibition of the TNFR / TNFR1 pathway (EC50); assay type: cell-based; settings: Table 8
# T2 sequence (P25118 30-454): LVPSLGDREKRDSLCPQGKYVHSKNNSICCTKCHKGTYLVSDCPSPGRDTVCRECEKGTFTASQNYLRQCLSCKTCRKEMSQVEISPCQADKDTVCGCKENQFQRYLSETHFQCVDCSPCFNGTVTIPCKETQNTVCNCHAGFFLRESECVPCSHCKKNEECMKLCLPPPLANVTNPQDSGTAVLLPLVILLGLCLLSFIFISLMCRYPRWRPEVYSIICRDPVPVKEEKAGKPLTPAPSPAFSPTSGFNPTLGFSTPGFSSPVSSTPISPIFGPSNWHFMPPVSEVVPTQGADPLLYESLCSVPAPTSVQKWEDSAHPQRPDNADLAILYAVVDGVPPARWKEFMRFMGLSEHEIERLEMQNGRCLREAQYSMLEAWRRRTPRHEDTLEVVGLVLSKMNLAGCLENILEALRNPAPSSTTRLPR
# Description: This correlation implies a peptide-protein interaction mechanism, wherein whereby tightly bound peptides are capable of blocking FasL association with the receptor and as such, inhibit FasL induced apoptosis.
molecule,measurement,setting,value
CC(C)C[C@H](NC(=O)[C@@H](N)CC(C)C)C(=O)NCC(=O)N[C@@H](C)C(N)=O [LLGA] (H-LLGA-NH2),EC50,Jurkat cells,93 nM
CC(C)C[C@H](NC(=O)[C@@H](N)CO)C(=O)NCC(=O)N[C@@H](C)C(N)=O [SLGA] (H-SLGA-NH2),EC50,Jurkat cells,6 nM
C[C@H](NC(=O)CNC(=O)[C@H](C)NC(=O)[C@@H](N)Cc1ccc(O)cc1)C(N)=O [YAGA] (H-YAGA-NH2),EC50,Jurkat cells,6 nM
ALGA [tetrapeptide],"Ka(M^−1), Measured Association Constants (Ka) for YLGA to XLGA Substituted Peptides",FasR,no binding
DLGA [tetrapeptide],"Ka(M^−1), Measured Association Constants (Ka) for YLGA to XLGA Substituted Peptides",FasR,5e+07 M⁻¹
ELGA [tetrapeptide],"Ka(M^−1), Measured Association Constants (Ka) for YLGA to XLGA Substituted Peptides",FasR,5e+07 M⁻¹
GLGA [tetrapeptide],"Ka(M^−1), Measured Association Constants (Ka) for YLGA to XLGA Substituted Peptides",FasR,no binding
HHIYLGA [HHI YLG A],"Ka (M^−1), Elongated Peptide Sequences",FasR,3e+08 M⁻¹
HHIYLGAT [HHI YLG AT],"Ka (M^−1), Elongated Peptide Sequences",FasR,3e+08 M⁻¹
HHIYLGATN [HHI YLG ATN],"Ka (M^−1), Elongated Peptide Sequences",FasR,3e+08 M⁻¹
HHIYLGATNY [HHI YLG ATN Y],"Ka (M^−1), Elongated Peptide Sequences",FasR,3e+08 M⁻¹
HHIYLGATNYI [HHI YLG ATN YI],"Ka (M^−1), Elongated Peptide Sequences",FasR,3e+08 M⁻¹
HHIYLGATNYIY [HHI YLG ATN YIY],"Ka (M^−1), Elongated Peptide Sequences",FasR,3e+08 M⁻¹
HIYLGATNYIY [HI YLG ATN YIY],"Ka (M^−1), Elongated Peptide Sequences",FasR,3e+08 M⁻¹
ILGA [tetrapeptide],"Ka(M^−1), Measured Association Constants (Ka) for YLGA to XLGA Substituted Peptides",FasR,9e+06 M⁻¹
IYLGATNYIY [I YLG ATN YIY],"Ka (M^−1), Elongated Peptide Sequences",FasR,3e+08 M⁻¹
KLGA [tetrapeptide],"Ka(M^−1), Measured Association Constants (Ka) for YLGA to XLGA Substituted Peptides",FasR,8e+06 M⁻¹
"LGA [LGA (trimer), Y-free trimer peptide]",EC50 (nM),Jurkat cells,no inhibition
RSSYLGA [RSSYLGA],TNFR1 EC50,TNFR1,no inhibition
same,EC50,"Jurkat cells; Table 8, read-out: Fas EC50",3.28 nM
RSSYLGAVF-NH2 [RSSYLGAVF],TNFR1 EC50,TNFR1,no inhibition
TLGA [tetrapeptide],"Ka(M^−1), Measured Association Constants (Ka) for YLGA to XLGA Substituted Peptides",FasR,2e+08 M⁻¹
YFGA [tetrapeptide],"Ka(M^−1), Measured Association Constants (Ka) YLGA and YXGA Substituted Proteins",FasR,no binding
YGGA [tetrapeptide],"Ka(M^−1), Measured Association Constants (Ka) YLGA and YXGA Substituted Proteins",FasR,1e+07 M⁻¹
same,decrease in measured Ka,FasR; relative to parent YLGA,20 fold
YIGA,"Ka(M^−1), Measured Association Constants (Ka) YLGA and YXGA Substituted Proteins",FasR,2e+08 M⁻¹
YLAA [tetrapeptide],"Ka(M^−1), Measured Association Constants (Ka) for YLGA and YLXA Substituted Peptides",FasR,1e+06 M⁻¹
same,EC50 (nM),Jurkat cells,no inhibition
YLGATNYIY [YLG ATN YIY],"Ka (M^−1), Elongated Peptide Sequences",FasR,3e+08 M⁻¹
YLGI [tetrapeptide],"Ka(M − 1), Measured Association Constants (Ka) for YLGA and YLGX Substituted Peptides",FasR,3 × 10^7 M − 1
YLGL [tetrapeptide],"Ka(M − 1), Measured Association Constants (Ka) for YLGA and YLGX Substituted Peptides",FasR,3 × 10^7 M − 1
YLGT [tetrapeptide],"Ka(M − 1), Measured Association Constants (Ka) for YLGA and YLGX Substituted Peptides",FasR,no binding observed
YLIA [tetrapeptide],"Ka(M^−1), Measured Association Constants (Ka) for YLGA and YLXA Substituted Peptides",FasR,no binding observed
YLLA [tetrapeptide],"Ka(M^−1), Measured Association Constants (Ka) for YLGA and YLXA Substituted Peptides",FasR,1e+06 M⁻¹
YTGA [tetrapeptide],"Ka(M^−1), Measured Association Constants (Ka) YLGA and YXGA Substituted Proteins",FasR,no binding
YVGA,"Ka(M^−1), Measured Association Constants (Ka) YLGA and YXGA Substituted Proteins",FasR,2e+08 M⁻¹
YldAA,"Ka(M^−1), Measured Association Constants (Ka) for YLGA and YLXA Substituted Peptides",FasR,no binding observed
